{"source": "paper doi:10.1101/2023.05.12.540488", "about": "(bioRxiv, 2023)", "proteins": {"B1": {"name": "S-adenosyl-L-homocysteine hydrolase from Methanococcus maripaludis (enzyme)", "chain": "MSNVKDMSLAPSGHLKMEWAKRHMPVLCRIAEEFKNDKPFEGLTIGMALHLEAKTAILAETLLEGGAKIVITGCNPLSTQDDVAAACVEKGMEVYAWRGETNEEYYENLNKVLDSNPDIIIDDGADLIFLIHTERTELIGKIMGGCEETTTGIIRLKSMAEEGALKFPVVNVNDAYTKHLFDNRYGTGQSAMDGIIRTTNLLIAGKNVVVGGYGWCGRGVASRAAGHGANVIITEVNPIRALEAKMDGFTVLKMEEAAKIGDIFVTTTGCKDILRMEHFLLMKDGAVLSNAGHFDNEINKNDLKELSKSVKEARFNIEEYDLGNKKIYLLGEGRLVNLACADGHPCEVMDMSFANQALSAKFIKENKGKLENEVYEIPYEQDFKIALLKLHSMGADIDELSPEQRKYLSDWKEGT"}, "B2": {"name": "S-adenosyl-L-homocysteine hydrolase from Mus musculus (enzyme)", "chain": "MSDKLPYKVADIGLAAWGRKALDIAENEMPGLMRMREMYSASKPLKGARIAGCLHMTVETAVLIETLVALGAEVRWSSCNIFSTQDHAAAAIAKAGIPVFAWKGETDEEYLWCIEQTLHFKDGPLNMILDDGGDLTNLIHTKYPQLLSGIRGISEETTTGVHNLYKMMSNGILKVPAINVNDSVTKSKFDNLYGCRESLIDGIKRATDVMIAGKVAVVAGYGDVGKGCAQALRGFGARVIITEIDPINALQAAMEGYEVTTMDEACKEGNIFVTTTGCVDIILGRHFEQMKDDAIVCNIGHFDVEIDVKWLNENAVEKVNIKPQVDRYWLKNGRRIILLAEGRLVNLGCAMGHPSFVMSNSFTNQVMAQIELWTHPDKYPVGVHFLPKKLDEAVAEAHLGKLNVKLTKLTEKQAQYLGMPINGPFKPDHYRY"}, "B3": {"name": "S-adenosyl-L-homocysteine hydrolase from Sulfolobus acidocaldarius (enzyme)", "chain": "MDYRVKDLSLAEQGRKQIEWAELHMPALMEIRKRFNAEKPLDGIRIGAVLHVTKETAVLVETLKAGGAEIALAGSNPLSTQDDVAAGLAKNGIHVYAWRGETEKDYYDNIREILKYEPHVIMDDGGDLHAYVHENNLTSKIVGGTEETTTGVIRLKAMEEEKVLKYPVIAVNNAFTKYLFDNRIGTGQSTIDGILRATNILIAGKVAVVIGYGWVGRGIASRFKGMGARVIVVESSPFRALEALMDGFDVMTMNRASEIGDIFVTATGNLNVVSRDHILRMKDGAVLANSGHFNVEIDVKGLKEISVETREVRQNLEEYKLRNGKRIYLLADGRLVNLVAAEGHPSEVMDLSFCNQALSVEHLIKNKGKLENKVYNVPIEIDEQVARLKLKALGIEIEELTIEQKEYIKQWKYGT"}, "B4": {"name": "S-adenosyl-L-homocysteine hydrolase from Pyrococcus furiosus (enzyme)", "chain": "MDCGKDYCVKDLSLAEEGWKKIDWVSRFMPVLQYIKREFEEKKPFKGVRIAATLHLEMKTAFLLLTLKAGGAEVSAAASNPLSTQDDVVAALAKAGVKVYAIRGESREQYYEFMHKALDIRPNIIIDDGADMISLVHKERQEMLDEIWGGSEETTTGVIRLRAMEKAGILKFPVIAVNDSYMKYLFDNRYGTGQSTWDGIMRATNLLIAGKNVVVVGYGWCGRGIAMRARGLGATVIVVEVDPIKALEARMDGFLVMDMKEAAKIGDIFVTATGNIKCIRREHFELMKDGAIMANAGHFDVEIWKPDLEKLAVEINNPRPNVTEYKLKDGRRLYLLADGRLVNLVAADGHPAEIMDMSFALQAKAAEYIKDNHERLEPKVYILPREIDEMVARIKLESMGIKIEELTEEQKKYLESWEHGT"}}, "assay_in_all_cases": "crystal structure", "key": {"[1]": {"target": "the molecule itself"}, "[2]": {"target": "the molecule itself", "remark": "listed apart in the source"}, "[3]": {"target": "the molecule itself", "remark": "listed apart in the source"}, "[4]": {"target": "the molecule itself", "remark": "listed apart in the source"}}, "note": "Read-outs that look alike come from different tables or passages of the source.", "data": [{"protein": "B1", "values": [{"measurement": "stoichiometry N", "setting": "[1]", "result": 4}]}, {"protein": "B2", "values": [{"measurement": "binding result", "setting": "[2]", "result": "binds"}]}, {"protein": "B3", "values": [{"measurement": "stoichiometry N", "setting": "[3]", "result": 4}]}, {"protein": "B4", "values": [{"measurement": "stoichiometry N", "setting": "[4]", "result": 4}]}]}
